“Also recorded” adds a separate entry of the source.
B1: CCL4: chemokine ligand used to activate CCR5 (protein)
chain: APMGSDPPTACCFSYTARKLPRNFVVDYYETSSLCSQPAVVFQTKRSKQVCADPSESWVQEYVYDLELN

Experiments:
Type in all cases: cell-based
RAGE [1] = target: T1, RAGE (Homo sapiens, UniProt Q15109); experiment: Ang II-induced pro-inflammatory signalling (p65-NFκB expression) in AT1R-CHO / RAGE-AT1R-CHO cells; conditions: RAGE-AT1R-CHO cells; 1 hour pre-treatment, 1 μg/mL; 1 μM Ang II; FIG. 6A
T1 construct: RAGE-AT1R—CHO cells expressing both full length RAGE and AT1R; expressed in transfected cells

RAGE [2] = target: T2, RAGE (Mus musculus, UniProt Q62151); experiment: S100A8/A9-induced pro-inflammatory signalling in PMAEC; conditions: 1 hour pre-treatment, 1 μg/mL, S100A8/A9 5 ng/ml, FIG. 6C
T2 construct: in murine SVEC that are endogenously replete in RAGE expression; host or cells: Svec4-10 mouse endothelial cells
Protocol: (§1) Additional experiments were conducted in the presence and absence of a 1 hour pre-treatment with a neutralizing antibody to RAGE (RAGEab; R&D systems; 1 μg/mL) or soluble RAGE22-331 (sRAGE; 1 μg/mL) prior to exposure to 1 μM Ang II or 5 ng/ml of the RAGE ligand, S100A8/A9.
(§2) Additional experiments were conducted in the presence and absence of a 1 hour pre-treatment with a pseudo-substrate for PKCζ (iPKCζ, 5 μM, Tocris).
(§3) To confirm the applicability of inhibition strategies to human tissues, additional experiments were undertaken in primary aortic endothelial cells from humans (Lonza). HAECs were grown in EGM-2 media. In each case cells were treated with mCherry-TAT (control), TAT-mCherry-RAGE362-404 (wild type), or TAT-mCherry-S391A-RAGE362-404 at a dose of 0.4 ng/ml for 30 min prior to treatment with either Ang II (1 μM), or S100A8/A9 (2 μg/ml; R&D systems) for 2h.

RAGE [3] = target: T2, RAGE; experiment: Ang II-induced pro-inflammatory signalling in PMAEC; conditions: 1 hour pre-treatment, 1 μg/mL, 1 μM Ang II, FIG. 6B
Protocol: as §1, §2, §3

RAGE [4] = target: T1, RAGE; experiment: S100A8/A9-induced pro-inflammatory signalling in RAGE-AT1R-CHO cells; conditions: 1 hour pre-treatment, 1 μg/mL, S100A8/A9 5 ng/ml, FIG. 6A
Protocol: as §1, §3

CCR5 = target: T3, CCR5 (Homo sapiens, UniProt P51681); experiment: Receptor-HIT BRET, β-arrestin2/Venus with RAGE/Rluc8 and CCR5
T3 construct: expressed in transfected cells; host or cells: HEK293FT, transient
Excerpt: Bioluminescence Resonance Energy Transfer (BRET)
BRET is an established technology for studying protein-protein proximity in live cells, particularly involving GPCRs (Pfleger and Eidne, 2006). One protein of interest was linked to a bioluminescent donor enzyme, Rluc8, a variant of Renilla luciferase, and a second linked to an acceptor fluorophore, Venus, a variant of green fluorescent protein. If in close proximity (<10 nm), energy resulting from the rapid oxidation of a cell-permeable coelenterazine substrate by the donor can transfer to the acceptor, which in turn fluoresces at a longer characteristic wavelength.
Plasmids were transiently co-expressed in human embryonic kidney (HEK) 293FT cells and BRET measurements taken at 37° C. using a POLARstar Omega or LUMIstar plate reader (BMG Labtech, Mornington, Victoria, Australia) with 460-490 nm (‘donor emission’) and 520-550 nm (‘acceptor emission’) filters, or a VICTOR Light plate reader (Perkin Elmer, Glen Waverley, Victoria, Australia) with 400-475 nm (‘donor emission’) and 520-540 nm (‘acceptor emission’) filters, or a CLARIOstar plate reader (BMG Labtech, Mornington, Victoria, Australia) with 420-480 nm (‘donor emission’) and 520-620 nm (‘acceptor emission’) filters. […]
For BRET kinetic assays, the final pre-treatment reading is presented at the zero time point (time of ligand/vehicle addition). […]

T3 sequence (P51681 whole entry): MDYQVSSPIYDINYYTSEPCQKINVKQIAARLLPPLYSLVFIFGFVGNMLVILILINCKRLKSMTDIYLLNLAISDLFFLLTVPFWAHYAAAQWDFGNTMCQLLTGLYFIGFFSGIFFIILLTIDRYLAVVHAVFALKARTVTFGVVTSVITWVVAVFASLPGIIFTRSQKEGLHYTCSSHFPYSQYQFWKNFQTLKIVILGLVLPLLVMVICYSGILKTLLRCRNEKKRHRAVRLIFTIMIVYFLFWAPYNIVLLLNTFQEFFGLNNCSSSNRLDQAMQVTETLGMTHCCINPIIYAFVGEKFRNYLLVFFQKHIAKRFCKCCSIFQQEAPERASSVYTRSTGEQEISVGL
T3 sequence (P32121 whole entry partner): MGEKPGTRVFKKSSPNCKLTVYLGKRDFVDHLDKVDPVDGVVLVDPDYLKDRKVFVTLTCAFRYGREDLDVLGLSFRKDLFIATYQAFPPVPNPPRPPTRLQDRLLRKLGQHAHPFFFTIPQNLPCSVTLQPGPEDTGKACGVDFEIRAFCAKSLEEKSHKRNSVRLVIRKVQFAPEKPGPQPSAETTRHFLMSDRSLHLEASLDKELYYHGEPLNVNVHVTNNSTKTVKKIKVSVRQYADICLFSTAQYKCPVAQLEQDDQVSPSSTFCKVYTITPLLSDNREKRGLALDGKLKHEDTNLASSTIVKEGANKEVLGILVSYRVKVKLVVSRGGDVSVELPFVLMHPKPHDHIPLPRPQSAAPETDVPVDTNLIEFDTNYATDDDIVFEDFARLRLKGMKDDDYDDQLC
T1 sequence (Q15109 23-404): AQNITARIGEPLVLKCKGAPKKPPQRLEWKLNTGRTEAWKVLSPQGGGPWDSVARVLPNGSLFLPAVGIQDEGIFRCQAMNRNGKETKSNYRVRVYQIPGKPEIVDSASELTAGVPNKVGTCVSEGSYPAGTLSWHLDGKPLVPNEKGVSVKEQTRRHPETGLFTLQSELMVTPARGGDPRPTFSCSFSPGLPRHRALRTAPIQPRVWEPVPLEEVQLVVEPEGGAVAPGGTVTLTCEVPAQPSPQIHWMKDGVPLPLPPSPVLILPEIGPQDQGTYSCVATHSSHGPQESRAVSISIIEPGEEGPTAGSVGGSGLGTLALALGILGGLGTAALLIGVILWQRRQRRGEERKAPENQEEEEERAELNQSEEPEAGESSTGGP
T2 sequence (Q62151 23-402): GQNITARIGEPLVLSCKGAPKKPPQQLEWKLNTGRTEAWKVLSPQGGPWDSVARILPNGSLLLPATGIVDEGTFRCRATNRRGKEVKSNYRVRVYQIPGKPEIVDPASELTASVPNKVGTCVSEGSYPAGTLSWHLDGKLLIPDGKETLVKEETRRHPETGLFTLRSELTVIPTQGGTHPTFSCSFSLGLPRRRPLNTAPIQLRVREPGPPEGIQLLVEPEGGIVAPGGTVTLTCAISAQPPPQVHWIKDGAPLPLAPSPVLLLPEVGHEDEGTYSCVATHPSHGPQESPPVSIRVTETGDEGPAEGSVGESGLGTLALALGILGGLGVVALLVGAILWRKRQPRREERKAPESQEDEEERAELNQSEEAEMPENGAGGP

Molecule	RAGE ligand-independent induction of pro-inflammatory signalling by Ang II (RAGE [1])	pro-inflammatory signalling induced by the RAGE ligand S100A8/A9 (RAGE [2])	Ang II-AT1R-dependent induction of pro-inflammatory signalling (RAGE [3])	RAGE ligand-dependent induction of pro-inflammatory signalling by S100A8/A9 (RAGE [4])	recruitment of βarrestin2/Venus to CCR5/Rluc8 (CCR5; control)	recruitment of β-arrestin2/Venus proximal to RAGE/Rluc8 (CCR5; in the presence of CCR5)
sRAGE22-331: soluble RAGE decoy with ligand-binding affinity; extracellular ligand-binding V-C1-C2 domains of RAGE	do not affect	able to attenuate	does not attenuate	block		
B1					recruitment	particularly weak recruitment; also recorded: Lack of
